# From patent US20100098706A1
# Target: human CD16 receptor (FcgammaRIIIa) (human) (UniProt P08637)
# Test: flow cytometry on NK cells; competition with 3G8-PE; antibody at 50 µg/ml
# human CD16 receptor (FcgammaRIIIa) (human), sequence (P08637 17-254): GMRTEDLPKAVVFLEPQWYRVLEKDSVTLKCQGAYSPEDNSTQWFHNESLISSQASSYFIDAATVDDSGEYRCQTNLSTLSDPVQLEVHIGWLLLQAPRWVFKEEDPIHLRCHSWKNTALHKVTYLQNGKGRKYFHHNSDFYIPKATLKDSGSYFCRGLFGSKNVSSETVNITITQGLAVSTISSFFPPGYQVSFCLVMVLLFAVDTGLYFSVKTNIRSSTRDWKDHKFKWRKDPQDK
substance,measurement,value
Rituxan® (antibody),binding percentage (100% = total inhibition of 3G8 binding),18.5%
